From IntAct's records for PubMed 23900285

B1: Peroxisomal biogenesis factor 3 (Saccharomyces cerevisiae), P28795 (parent)
chain: MAPNQRSRSLLQRHRGKVLISLTGIAALFTTGSVVVFFVKRWLYKQQLRITEQHFIKEQIKRRFEQTQEDSLYTIYELLPVWRMVLNENDLNLDSIVTQLKDQKNQLTRAKSSESRESSPLKSKAELWNELELKSLIKLVTVTYTVSSLILLTRLQLNILTRNEYLDSAIKLTMQQENCNKLQNRFYNWVTSWWSDPEDKADDAMVMAAKKSKKEGQEVYINEQAFLSLSWWILNKGWLSYNEIITNQIEIEFDGIHPRDTLTLEEFSSRLTNIFRNTNSQIFQQNNNNLTSILLPKDSSGQEFLLSQTLDADALTSFHSNTLVFNQLVNELTQCIESTATSIVLESLINESFHFIMNKVGIKTIAKKKPGQEDQQQYQMAVFAMSMKDCCQEMLQTTAGSSHSGSVNEYLATLDSVQPLDDLSASVYSNFGVSSSFSFKP
partner: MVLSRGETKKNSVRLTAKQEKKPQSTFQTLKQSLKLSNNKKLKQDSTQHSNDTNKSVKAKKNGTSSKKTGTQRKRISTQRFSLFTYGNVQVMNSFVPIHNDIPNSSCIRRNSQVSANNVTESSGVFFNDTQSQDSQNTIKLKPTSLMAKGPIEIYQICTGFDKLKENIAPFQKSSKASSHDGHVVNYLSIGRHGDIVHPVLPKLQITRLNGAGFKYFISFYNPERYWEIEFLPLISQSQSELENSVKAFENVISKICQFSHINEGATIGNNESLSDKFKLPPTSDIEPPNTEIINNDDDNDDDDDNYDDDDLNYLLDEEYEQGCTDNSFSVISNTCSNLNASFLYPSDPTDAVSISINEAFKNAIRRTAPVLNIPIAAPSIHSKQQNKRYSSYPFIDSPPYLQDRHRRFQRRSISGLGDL

Variants of: B1
Details: with inp1_yeast INP1, Q03694

effect of a mutation on the interaction | Variant
decreasing interaction | MAPNQRSRSLLQRHRGKVLISLTGIAALFTTGSVVVFFVKRWLYKQQLRITEQHFIKEQIKRRFEQTQEDSLYTIYELLPVWRMVLNENDLNLDSIVTQLKDQKNQLTRAKSSESRESSPLKSKAELWNELELKSLIKLVTVTYTVSSLILLTRLQLNILTRNEYLDSAIKLTMQQENCNKLQNRFYIWVTSWWSDPEDKADDAMVMAAKKSKKEGQEVYINEQAFLSLSWWILNKGWLSYNEIITNQIEIEFDGIHPRDTLTLEEFSSRLTNIFRNTNSQIFQQNNNNLTSILLPKDSSGQEFLLSQTLDADALTSFHSNTLVFNQLVNELTQCIESTATSIVLESLINESFHFIMNKVGIKTIAKKKPGQEDQQQYQMAVFAMSMKDCCQEMLQTTAGSSHSGSVNEYLATLDSVQPLDDLSASVYSNFGVSSSFSFKP [N188I]

Variants of: B1
Details: with inp1_yeast INP1, Q03694
Remark: another data set of the same source

effect of a mutation on the interaction | Variant
disrupting interaction | MAPNQRSRSLLQRHRGKVLISLTGIAALFTTGSVVVFFVKRWLYKQQLRITEQHFIKEQIKRRFEQTQEDSLYTIYELLPEWRMVLNENDLNLDSIVTQLKDQKNQLTRAKSSESRESSPLKSKAELWNELELKSLIKLVTVTYTVSSLILLTRLQLNILTRNEYLDSAIKLTMQQENCNKLQNRFYNWVTSWWSDPEDKADDAMVMAAKKSKKEGQEVYINEQAFLSLSWWILNKGWLSYNEIITNQIEIEFDGIHPRDTLTLEEFSSRLTNIFRNTNSQIFQQNNNNLTSILLPKDSSGQEFLLSQTLDADALTSFHSNTLVFNQLVNELTQCIESTATSIVLESLINESFHFIMNKVGIKTIAKKKPGQEDQQQYQMAVFAMSMKDCCQEMLQTTAGSSHSGSVNEYLATLDSVQPLDDLSASVYSNFGVSSSFSFKP [V81E]
